Data as given in patent publication US20100099103A1.

Biological target: human TNF (hTNF) (human) (UniProt P01375)
Test: method not stated (free scFv protein; titration curves in FIG. 11)

Sequence of UniProt P01375 (P01375 77-233 limits assumed): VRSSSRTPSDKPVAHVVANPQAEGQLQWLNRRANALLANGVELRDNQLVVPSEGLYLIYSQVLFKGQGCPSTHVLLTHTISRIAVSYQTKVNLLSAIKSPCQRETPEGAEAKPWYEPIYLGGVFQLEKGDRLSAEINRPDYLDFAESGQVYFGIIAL

## 2SD4 scFv (D2E7 scFv precursor), free protein
  Kd: 0.2 µM
